Laboratory results from US7488573B2, “In vivo angiogenesis assay” (Children's Hospital Medical Center, priority 2002, dated 2009).

System: PM vascular system
Test: In vivo pupillary membrane (PM) angiogenesis assay in rat pups, transcorneal injection
Design: species or system Sprague-Dawley rat
Conditions: after 24 hours
Description: A Sprague-Dawley rat pup, available from Taconic Farms (German Town, N.Y.), aged postconception (p.c.) day 30.5 to p.c. 34.5, was subdued with metaphane and subsequently anaesthetized with an intramuscular injection of ketamine and xylazine at 1.6 mg/g and […] respectively. The depth of anesthesia was monitored by paw pinch response and where necessary, the subject pup was maintained under anesthesia with additional doses of ketamine and xylazine intraperitoneally. The right eyelid of the rat pup was parted at the suture using a microdissecting vanna (Storz, St Louis), the eyeball gently raised, and the eyelids folded underneath to permit illumination of the eye with optic fibre light guides. The local anesthetic tetracaine hydrochloride (0.5%) was applied to the eyeball prior to parting of the eyelids. The rat pup was then placed in a silastic body mold designed to reduce movement, and kept warm with an overlaid heating element from a battery powered boot warmer (L. L. Bean, Maine). The liquid phase for the water immersion microscope objective was provided by addition of a bead of phosphate-buffered saline between the eyeball and the objective. Capillaries of the pupillary membrane were readily detected by searching through the focal axis. An eye holder as shown in FIG. 1 held the eyeball to limit movement, and to illuminate the interior of the eye.
A 5× air objective of a Zeiss Axiophot microscope (Zeiss, Thornwood, N.Y.) was positioned above the cornea of an anaesthetized rat. A beveled glass needle mounted on a micromanipulator was axially apposed to the eye holder and in this position could penetrate the cornea for delivery of the test substance directly onto the pupillary membrane.
A defined volume of a test substance was delivered to the anterior chamber using a Nanoject Variable injector (Drummond, Pa.).
After the predetermined period of angiogenic progress, the rat pup was humanely sacrificed. The treated PM was prepared as a whole mount specimen by dissecting the retina, sclera, choroid and cornea away from the lens, iris diaphragm, hyaloid vessels and pupillary membrane. The latter tissue group was then fixed overnight in 2% glutaraldehyde in 0.1 M cacodylate pH 7.4, 0.1 M sucrose. After fixation, the tissue was washed in buffer alone and dehydrated in an ethanol series (50%, 70%, 80%, 90%, 95% and 100%). The specimens where then treated for 1 hour in hexamethyldisilazane (Polysciences Inc. Pennsylvania) and then air dried overnight. After drying, they were mounted and sputter coated with approximately 100 angstroms of gold-palladium. Specimens were visualized using a JOEL SEM 840 scanning electron microscope.
The angiogenic effect on the cellular/vascular PM system was observed and recorded with imaging and recording means. […]

B1: Ang2: biotinylated recombinant human Ang2, available from Calbiochem (protein, UniProt O15123 19-496, looked up)
Angiopoietin-2: YNNFRKSMDSIGKKQYQVQHGSCSYTFLLPEMDNCRSSSSPYVSNAVQRDAPLEYDDSVQRLQVLENIMENNTQWLMKLENYIQDNMKKEMVEIQQNAVQNQTAVMIEIGTNLLNQTAEQTRKLTDVEAQVLNQTTRLELQLLEHSLSTNKLEKQILDQTSEINKLQDKNSFLEKKVLAMEDKHIIQLQSIKEEKDQLQVLVSKQNSIIEELEKKIVTATVNNSVLQKQQHDLMETVNNLLTMMSTSNSAKDPTVAKEEQISFRDCAEVFKSGHTTNGIYTLTFPNSTEEIKAYCDMEAGGGGWTIIQRREDGSVDFQRTWKEYKVGFGNPSGEYWLGNEFVSQLTNQQRYVLKIHLKDWEGNEAYSLYEHFYLSSEELNYRIHLKGLTGTAGKISSISQPGNDFSTKDGDNDKCICKCSQMLTGGWWFDACGPSNLNGMYYPQRQNTNKFNGIKWYYWKGSGYSLKATTMMIRPADF
modifications: biotin
notes: biotinylated recombinant human Ang2, available from Calbiochem
increase in the width of flattened vessels present in the whole mount preparations (rat pups A5, Ang2 10 nanograms/ml anterior chamber, compared to the control): 2.1 fold | staining by HU177 antibody (collagen remodeling of the basal lamina of the PM) (rat pups A5, Ang2 10 nanograms/ml anterior chamber, control showed no staining): significant staining | number of mitotic cells in the PM blood vessels (rat pups A5, injection into anterior chamber (VEGF 1 nanogram/ml; Ang2 10 nanograms/ml), compared to the control (un-injected eye)): significant increase | diameter of capillary vessels (rat pups A5, injection into anterior chamber (VEGF 1 nanogram/ml; Ang2 10 nanograms/ml; anti-Tie2 50 nanograms/ml), compared to the control): dramatic increase
